Results as given in a protein production outcome set (Wang et al. 2014).

Experiment: label from the status in PepcDB records

Sequence	protein production
MVQSQSLSTLTICGSVKVSSLLRNRLNSVKASSLIGDRCVSCQFLRKSPSFRSHWKSLKQRNLLRVEARWPFQGGGEQGLDPSSERSESANEDILIFFFQLDLATRVQVKTKCRVFISFKMVANGFDVLQY	failed
MNVSTAELLSWVVKSSYLVAATLFLLGLQRMASPLSARSGIRWAGLGMLIATVATFFLPELHNVPLILAALAIGTGVAWWSAKKVAITDMPQMVALYNGMGGGSAAAIGAVELLRFSFFANRDTAHWSAQAVAELAARQPDTAMVVLAVIGSAIGAVSLSGSIIAWAKLDGRLDRRMTFPGQQAFNLAVAVAVLALAIWAAGSLQPLAIIAFFVVALALGVLMTLPIGGADMPVVISLYNAFTGLAVAFEGYVLGNEALIIAGMMVGAAGILLTRLMAKAMNRPISGVLFSNFGGGGQAQEISGVQKPIEAGDVAAMMAFAERVVIVPGYGMAVAQAQHKIWELAQRLMARGVKVKFAIHPVAGRMPGHMNVLLAEAGVPYDLIADMDDINPEFASTDVSLVIGANDVVNPVAKTDSASPIYGMPILDVVNSRNTVVIKRGKGTGFAGIENALFYADNTRMLYGDGAEAAGALVSELKALDGSGH	failed
MPQWRVRMHSGGLELALVLMLAAIVAVPVFKRFGLGAVLAYLVAGVVLGPDGAGVVQDAERISGAAEIGVVMLLFVIGLELSPARLKVMRHSVFGAGATQVLVTAVILGGLLMAAQLGWKSALIVGVALALSSTAVGLQLLAERKALSSDYGRLAFAILLFQDLIAIPLLAAIPLLGGSKNATLQWQDVAKAVAALALVIVCGRFVLRHLFNVVARTRMPEVFTASALLVVLGTAWIMQEAGLSASLGAFIAGVLLADSEFRHELESQIEPFEGLLLGLFFISVGMGIDLHRVVAEPWLIAAGVAILLVVKFSLLVGIGSVAKLPLRSSLMLGSVLWLGGEFAFVVFNEADRVGLLEPANHDRLVAIVGVSMALTPLLLLGMQRILNGPLRARAPKTDRPFDTIDAQTPKVLVAGMGRFGQVVARLLTARHVPFVALEHNPDTVEDLRRFGSQLYYGDPTRPELLRAAGAERIKVFVIAVDDPETNIKTVRLIRRLYPQATVLARARNRQHAWKLMDLGAEPFREVFASSLELSERVLTSLGLGEALAHDHVKRFRQHDEDLLRRQHLVYDDEAKVIQTSRDARADLMNLFEADVRADVDGEPAPTLRER	failed
MSLSSGEHEASRVLRERDYRWEGTEEEAYKAEGTHFSGARRQTLVGRPAGQEAPAFETRYFEVEPGGYTTLERHEHTHVVMVVRGHAEVVLDDRVEPLTPLDCVYIAPHAWHQIHATGANEPLGFLCIVDSDRDRPQRPDADDLARMCADPAVARRIRTEGHHHHHH	not failed
MNFDLYMNGVVEQARNEIESAGYEQLTTAEDVDKVLKQDGTTLVMINSVCGCAGGIARPAASHALHYDVLPDRLVTVFAGQDKEATQRAREYFEGYAPSSPSFALVKDGKITEMIERHQIEGHDVMNVINQLQTLFNKYC	not failed
MRFPFCTGGKTFVLWDVEVCPIPDGLGPHDVFSNIKRVLMDNGYRGDVSTTPYTDLTKSNGEFNGIPVRHLSAGDRDARLEVYMIDLYSCVVKEDGPLNLMLFVGDISSRSKDFFRVFRLLQSSSSDSSVPLSLTQDGICKALTFGEEVIIRECGERRKVPNSD	not failed
MDKHKKNNQKEKRVKRNLKTLLLGSPREITIPGSRFPNGTQNLVPVVDIQKGVLITEDGRYIKVLEIVPTNFYLKSRIEQQNIIYYFSCYLKIAPQSLQILVCTQRADIDAYCDQMEKYYNREKNENCKAMILEDAQLVNYLASYEAVTRRFYLIYEYKGEATEFTEISKELADQAETAYQYLDYCGLEVLRHDNYDEFLLRTVYTAYHKQSARNINFSALMEQVGPVFNTPEITEDQLEEEDSEGITTIQDVLAPTEADLEHSKYILIDGVYHAYLYITGYSYPTERGLAWLSPLIELGDGISLSFFLEKKRKEQILSKVVKTTMINRSRLRDIEDIRADYEELDDAIYSGMYIKDRLNRDGEDFFYMHTLIEVTALDETTLNKRIKQVQNLCVSMDMTARRADWCHEQCFRSMLPIAKLDMDIAKRTQRNVLTSGAAGAFPFSSFELCDNKGVLMGINLHNNSAVIVDNFNSDIYSNGNLAIFGMSGAGKTYTLLLLAMRLRMCGVQVFIIAPEKGFEYRCACEAIGGQFLRLSPGSEDCINLMEIRRSTLDIDSNLANNIQRNDSVLLSKVQDLHTYIRLRYPQITPEEAYQLNIAILECYESFGITKDNRSLLNPDGSFKAMPDFTHLYSCLLKYPSLKNVALAVKEIIDFGMGGQTNVDLFSSFIVLDTSGAKKKDISSSTFVATSFIRDELSRSRTRKKAVLGDELWVIAGEEGNEQAADFIIEMVKLIRGYGAIFVSATQNTLDYFALRDGKFGDALLNNSRLKLLLQMEEAEAIKLQEKLGLSDEEVMQVVRCGRGQGLLCAGKNRIGIEIRSSQTEYELITTNRTDLEKREARTDTAEL	failed
MAAILISLIGKYGMNGIFIATFMAGIFLLLAGIFRLGNLISLIPSPVITGFTSGIAIIIASGQIKNFFGIEHFTGSFFDLMKFISGLHIDYPSTIIGLLTILLMIFYPKSWGKKFPASLLAILLSTLAVLALKLDIPLVGKIPTTLIPQAHLRLTELNPQDMKTLLIPAISITVLGMTESLLCGASAGRATNHPMDNNQELVAQGIGNIFIPFFGGIPATAAIARTSVAIKAGAQTRLTGIIHALILLLSMFLFAPFMTHIPLSALAGVLIMTAVRMNEWEAIRFLFKNKLKSGIIEFFVTMIITVIFDLSTAILAGIVVGFLLFIVKISQIEINSSQIEPERISQNHHEVFTDWTVIYISGPLFFLNSSKLKQAIDELPANTNAVLSLRGVPMIDVTSIKLLIDIYSIFHKEERQIVFASMNPKLKESFKRTGLISMVGEEAIYPSVNEFLLDLVDKNK	failed
MKQKDFFLYAVMSVFLGMQGCASSSDIKQNVGTSEIAHTKQTLQIAGLKHCNNEGNDSIHLNPDEPLTIIVHGCFSSAGRFETLADVYGLYDQQAICFEYDDRKSLEDTSGELVAALNQLSTQNPNQDLHVIGHSQGGLVARRALTSEREDQQTVTAKKVQLTTVSSPFNGIEISSHCGITPLRILSLGIVDLICYAVTGEKYQQIPPNADFIEQPGDLVASVSQHLVIKTDERNSCRKENDKGECIEDDYVFSVNEQSNNQVDDGVNTDLVTVKAGHVEIVGNGESVPTDLINILKQKEVLVDKSGVDEQKQGYLINQLYFD	failed
MKVFITGGTGFVGSAVVQELVANGFEVVGLARSETSAQKLISWGAQPVRGSLTSLSTLATAAAQADAIIHLGFNNDFRHFFQAGAMDRRAIETMGRAISGTNKPLVVTYGTTGIRKHVETEHEVADTGLLKWLTPRKSEIVARQLMAQNINAFVVRLSPAVHGAGDMGFTRTVIERAKKSHRAEYFGLGTHAWSAVHRLDAAHLFYLVTMYGLEHPTTNERVFNAVAEESITIAAIARTISRKLNVPLKAKYNPLSFGDTAMLYLINCPTSSQLTRQILGWVPVQPDLLTDISSSRYLEHHHHHH	failed
MPSAEISSSTEAKQAATTVDVSYKTHVQTFGWQDWAANGASAGTTGLAKRLEAIQIKTSAPASQGGIRYRTHVQTYGWLDWVSDGASSGTTGEAKRLEAIQIELTGALATQYDVYYRVHAQTFGWLDWACNGASAGSAGYAKRLEAIQIVLVPKGGKAPGSTAAPYKELPPAVSYQSYLSGAWQNSVLDNAVSGTVGQAKQIEGIKISLQDKAVSFAGSSIQYRTYLQTYAWQDWTSNGGTSGKPGSGKRVEAVQIKLTGSIASSYDVYYRVHSQTFGWLDWACNGQSAGSAGYAKRIEAIQIVLVKKGGAAPGSTATPYKEAPPSVTYQTYISGGWQPTVADKATSGLAGQGKKTEGLRVSLKAGAQSLGNSSVKYRTYLQTYGWQSWVSNGASSAKAGSGKRMEAIEISLTGDISSQYDIYYRSYVTGYGWLGWACNGATSGTTDYAKPIEAVQAVLVKKGGAAPGSTSNAYLKPEVTGPFEISFSPSGASNFGGLVSIEPDHDVILVASAKGGAGGYQYRYRAELIGGSIQTLKDYSGSSSYTWRPNTPGRYKMYVDVKDSTGTVKTAMFQMSVGLSGIDVSEHQGTIDWKKVKAAGIDYAMIRAGFGWEEIDDQTDASLVQNVTGAKQAGLPFGLYHYSYADTVEEAKKEAEFLLDILEANNIAPSDLSYPIAFDIEEPDRLNVSQRRVNTDMVNAFCEIIRDAGYLPMVYASKTVIQDYLYYDEISANNIWMAAWTSTPNDTEIFDNCFPVDMWQYSESGTVDGINGRVDLNICYTTVFRDGSADTTQKGKVVVDAGSSLNVRKAPSVNADVVGSLYKDDIVTIISETSGWYQIVTSTGVSGYVSAEYIQKI	failed
MKETPRASGATNFILVGLGVIIALLGLLLAAGGVKLAGLGGSWYFLIGGLAMAIAGVLIARRKKAGAWLYAVFLVGTAIWALIDAGLVFWPLFSRLFMFGAIGMVVALVYPLLARANGASAGRGAYGVAGVMAVVLVVAVGNMFVAHPSVAPTGKGPGMTPVETGKEQKDWAHYGNTEGGSRFAALDQINRDNVNKLKVAWTYQTGDVAISDGNGAEDQLTPLQIGSKVFICTPHNNLIALDADTGKELWKNEINAQSKVWQRCRGMAYFDATAAIAQPTQPNSSPITGVSVAAGANCQRRLLTNTIDGRLIAVDADTGEFCQGFGNNGQVDLKAGLGDVPDSYYQLSSAPLMAGTTVVVGGRVADNVQTDMPGGVIRGFDVITGEMRWAFDPGNPEDRQAPQGDKTYVRSTPNSWAPMSYDPAMNTVFLPMGSSSTDIYGVERSKLDHTYGASVLALDATTGNQKWVFQTVHNDLWDFDLPMQPSLIDFTKDDGQSVPAVVIGTKAGQIYVLDRATGKPLTQVDEVPVKPSNIPNEPYSPTQPKSVGMPQIGAQTLTESDMWGATPYDQLLCRIDFKKMRYDGLYTAPGTDLSLSFPGSLGGMNWGSISTDPVHGFIFVNDMRLGLWIQMIPSQNKGGAASGGEALNTGMGAVPLKGTPYAVNKNRFLSVAGIPCQAPPFGTLTAIDMKTRQVAWQVPVGTVEDTGPLGIRMHLPIKIGLPTLGGTLSTQGGLVFIAGTQDFYLRAYDSSNGNEIWKARLPVGSQGGPMTYVSPKTGKQYVVITAGGARQSTDRGDYVISYALP	failed
MAPRTNRPRTNRPRTGRPPAPDAPAAPDAPTAPDARRRRLPMRFLLPSLLLLAVMAMLMLRGFVHSEILADHRIRPPAATDQVPEKILDGGPVIDTRGGRTTSLSLPDHRLVLTFDDGPDPQWTPKVLDVLKKHHAHAVFFVTGTMTSRHPDLVRRLVAEGHEVGVHTFNHPDLAYQSKKRIDWELSQNQLALAGAAGIRTSLFRPPYSSFADAMDNESWPVTEYIGTRGYITVVNNTDSEDWQKPGVDEIIRRATPRGGKGAVVLMHDSGGDRHQTVQALDRFLPELQRRGYEFENLSEALGAPSAHTPVTGVDRWKGNAWIFLVQAADRITGMLVVGLAVIGGLVLTRFGLMLLLSGTHARRVRRPDFRWGPAPVTEPVSVLVPAYNEAKCIENTVRSLTASEHPVEVIVVDDGSSDGTARLVESLRLPDVRVVRQHNAGKPAALNRGLANARHDLIVMMDGDTVFEPATVRELVQPFADPRVGAVAGNAKVGNRDSLIGAWQHIEYVMGFNLDRRMYDLLRCMPTIPGAVGAFRRSALERVGGMSDDTLAEDTDITMALHRDGWRVVYAEKARAWTEAPESVQQLWSQRYRWSYGTMQAIWKHRRALVERGPSGRFGRVGLPLVALFMVVAPLLAPLIDVFLLYGVIFGPTQKTVLAWLGVLAVQAVCAAYAFRLDRERMTHLVSLPLQQILYRQLMYVVLLQSWITALVGGRLRWQKLRRTGVVEAPGSIPQQRTAGSESERRPVG	failed
MSLHASAIESIETIIVDLPTIRPHKLAMHTMQNQTLVLIRLRCADGIEGLGESTTIGGLAYGNESPDSIKTNIDRFVAPLLIGQDASNINAAMLRLEQSIRGNTFAKSGIESALLDAQGKRLGLPVSELLGGRVRDALPVAWTLASGDTAKDIAEAQKMLDLRRHRIFKLKIGAGEVDRDLAHVIAIKKALGDSASVRVDVNQAWDEAVALRACRILGGNGIDLIEQPISRNNRAGMVRLNASSPAPIMADESIECVEDAFNLAREGAASVFALKIAKNGGPRATLRTAAIAEAAGIGLYGGTMLEGGIGTLASAHAFLTLNKLSWDTELFGPLLLTEDILAEPPVYRDFHLHVSKAPGLGLSLDEERLAFFRRDKTTPVLHHTEGHHHHHH	not failed
